Assay results as given in publication PMC3471852.

Molecular target: β-arrestin-2 (UniProt P32121)
Experiment: anti-HA co-IP after DSS cross-linking, anti-Flag blot
Details: reference: wild type C3aR

binding against the reference (sites S459,T463,S465,T466,S470,S475,S479,T480,T481)	other: percent decrease vs wild type (sites T463,S465,T466,S470) [%]	Substance
lost	–	C3a receptor (C3aR) (from UniProt Q16581) MT7 (S459A plus MT1 and MT2 substitutions)
–	74	C3a receptor (C3aR) (from UniProt Q16581) MT2 (T463A/S465A/T466A/S470A)
